Substrate in this data set: NC(=O)c1ccc[n+]([C@@H]2O[C@H](COP(=O)([O-])OP(=O)(O)OC[C@H]3O[C@@H](n4cnc5c(N)ncnc54)[C@H](O)[C@@H]3O)[C@@H](O)[C@H]2O)c1
The data set can be described thus: purified protein.

In doi:10.1101/2022.03.02.482641v1 one finds Km and kcat data, which are given here for two proteins.

What is called Km is the concentration of substrate that gives half-maximal velocity. By kcat is commonly meant the number of substrate molecules converted per active site and unit of time at saturation.

B1: hSARM1 (hSARM1 w.t., near-intact, 26ERL...GPT724) (Homo sapiens) (protein)
chain: ERLAVPGPDGGGGTGPWWAAGGRGPREVSPGAGTEVQDALERALPELQQALSALKQAGGARAVGAGLAEVFQLVEEAWLLPAVGREVAQGLCDAIRLDGGLDLLLRLLQAPELETRVQAARLLEQILVAENRDRVARIGLGVILNLAKEREPVELARSVAGILEHMFKHSEETCQRLVAAGGLDAVLYWCRRTDPALLRHCALALGNCALHGGQAVQRRMVEKRAAEWLFPLAFSKEDELLRLHACLAVAVLATNKEVEREVERSGTLALVEPLVASLDPGRFARCLVDASDTSQGRGPDDLQRLVPLLDSNRLEAQCIGAFYLCAEAAIKSLQGKTKVFSDIGAIQSLKRLVSYSTNGTKSALAKRALRLLGEEVPRPILPSVPSWKEAEVQTWLQQIGFSKYCESFREQQVDGDLLLRLTEEELQTDLGMKSGITRKRFFRELTELKTFANYSTCDRSNLADWLGSLDPRFRQYTYGLVSCGLDRSLLHRVSEQQLLEDCGIHLGVHRARILTAAREMLHSPLPCTGGKPSGDTPDVFISYRRNSGSQLASLLKVHLQLHGFSVFIDVEKLEAGKFEDKLIQSVMGARNFVLVLSPGALDKCMQDHDCKDWVHKEIVTALSCGKNIVPIIDGFEWPEPQVLPEDMQAVLTFNGIKWSHEYQEATIEKIIRFLQGRSSRDSSAGSDTSLEGAAPMGPT
On to B1, for which the Km came out at 33 µM and the catalytic constant (kcat) came to 3.65 s⁻¹.

B2: zfSARM1 (zebrafish SARM1, zfSARM1 w.t.) (Danio rerio) (protein)
chain: DRLTVPEYVSSRLHNRRTAPDPRAVSPGISTDVQAVLDGSLPALRSAIRTLRSSKDTGDLEETRRAIAETFQLVEEAWVLPTVGRRVAEEICNRIRLDGGLELLLQLMQTPAVEITYESAKLLEQILVSENRDYVARMGLGVILNLTREQEDAQLARSVSGILEHMFKHTEETSAQLITNGALDTILYWCRGTDPTVLRHCAVALSNCAMYGGHRCQRLMIEKQAAEWLFPLAFSKEDELIRFHACLAVAVLAANREMEKEVVKSGTLELVEPFIASLDPDEFARNMLDSADSMQGRTAADLQHLLPLLDGTRLEGKCIAAFYLCVETSIKSRQRNTKIFQEIGAVQSLKRIVMYSSNATVCSLAKRALKMMSEEVPRRILSSVPNWKSGEVQTWLQQIGFSAFSERFQELQVDGDLLLNITEQDLIQDLGMTSGLTRKRFLRDLRVLKTYANYSTCDPNNLADWLADADPRFRQYTYGLVQSGVDRNNIVHITDQQLLTDCHVENGIHRAKILSAARRPSKPCLTDSQPKGPDVFISYRRTTGSQLASLLKVHLQLRGFSVFIDVEKLEAGRFEEKLITSVQRARNFILVLSANALDKCMGDVAMKDWVHKEIVTALNGKKNIVPVTDNFVWPDPTSLPEDMSTILKFNGIKWSHEYQEATIEKILRFLEGCPSQEKPDGAKTDKKEPQKK
B2: the Km came out at 28 µM and the catalytic constant (kcat) stood at 6.85 s⁻¹.
